Results from patent US6521741 (FRANK KOENTGEN, dated 2003).

Target: T1, streptavidin (UniProt P22629 37-163, limits assumed)
T1 construct: Immobilised on column material; also called streptavidin column; streptavidin matrix
Assay: streptavidin column pull-down, SDS gel
Excerpt: FIG. 11 is a photographic representation of LHL purified via kappa-loaded streptavidin column as shown on a silver stained 20% w/v polyacrylamide SDS PHAST-gel. LHL= LHL alone plus streptavidin matrix; LHL-kappa=LHL purified on the kappa-loaded streptavidin matrix; kappa=kappa alone bound to streptavidin matrix.

T1 sequence (P22629 37-163 limits assumed): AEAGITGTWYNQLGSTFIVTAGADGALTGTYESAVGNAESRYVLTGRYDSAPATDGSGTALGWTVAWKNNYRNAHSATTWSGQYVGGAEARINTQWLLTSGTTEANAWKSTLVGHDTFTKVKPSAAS

B1: LHL (designed binder)
chain: APKDNTEEVTIKANLIFANGSTQTAEFKGTFEKATSEAYAYADTLKKDNGEYTVDVADKGYTLNIKFAGKEATNRNTDGSTDYGILQINSRWGGLTLKEEVTIKANLIFANGSTQTAEFKGTFEKATSEAYAYADTLKKDNGEYTVDVADKGYTLNIKFAG
notes: Expressed in E. coli from pASK75; LHL carries no strep-tag; also called growth factor LHL
- binding result: no binding
